In patent publication US20130053549A1 (UCB, published 2013):
Substitutions are numbered along the chain they refer to.

B1: A26Fab 645Fv 1G4S 1189Fv (other)
heavy: EVQLVESGGGLVQPGGSLRLSCAASGFTFTNYGIHWIRQAPGKGLEWVASISPSGGLTYYRDSVKGRFTISRDDAKNSPYLQMNSLRAEDTAVYYCATGGEGIFDYWGQGTLVTVSSASTKGPSVFPLAPSSKSTSGGTAALGCLVKDYFPEPVTVSWNSGALTSGVHTFPAVLQSSGLYSLSSVVTVPSSSLGTQTYICNVNHKPSNTKVDKKVEPKSCSGGGGSGGGGSGGGGSEVQLLESGGGLVQPGGSLRLSCAVSGIDLSNYAINWVRQAPGKCLEWIGIIWASGTTFYATWAKGRFTISRDSTTVYLQMNSLRAEDTAVYYCARTVPGYSTAPYFDLWGQGTLVTVSSGGGGSEVQLVESGGGLVQPGGSLRLSCAASGFTFNDYDMAWVRQAPGKCLEWVASITPSGGGTYYRDSVKGRFTISRDNAKNSLYLQMNSLRAEDTAVYYCARHGYTLDYFEYWGQGTMVTVSS
light: DIQMTQSPSSLSASVGDRVTITCRATQSIYNALAWYQQKPGKAPKLLIYNANTLHTGVPSRFSASGSGTDSTLTISSLQPEDFATYYCQQYYDYPLTFGGGTKVEIKRTVAAPSVFIFPPSDEQLKSGTASVVCLLNNFYPREAKVQWKVDNALQSGNSQESVTEQDSKDSTYSLSSTLTLSKADYEKHKVYACEVTHQGLSSPVTKSFNRGECSGGGGSGGGGSGGGGSDIVMTQSPSSVSASVGDRVTITCQSSPSVWSNFLSWYQQKPGKAPKLLIYEASKLTSGVPSRFKGSGSGTDFTLTISSLQPEDFATYYCGGGYSSISDTTFGCGTKVEIKGGGGSDIQMTQSPSSLSASVGDRVTITCLASEGISNDLAWYQQKPGKAPKLLIYDATRLQDGVPSRFSGSGSGTDFTLTISSLQPEDFATYYCQQSYKYPWTFGCGTKLEIK
notes: Trispecific Fab-Fv-Fv (OX40, HSA, IL-6); second linker 1xG4S; HEK293 supernatant; also called A26Fab-645Fv-1189Fv; FabFvFv
B2: A26Fab-(3xG4S)-645dsFv-(3xG4S)-652dsFv (other)
heavy: EVQLVESGGGLVQPGGSLRLSCAASGFTFTNYGIHWIRQAPGKGLEWVASISPSGGLTYYRDSVKGRFTISRDDAKNSPYLQMNSLRAEDTAVYYCATGGEGIFDYWGQGTLVTVSSASTKGPSVFPLAPSSKSTSGGTAALGCLVKDYFPEPVTVSWNSGALTSGVHTFPAVLQSSGLYSLSSVVTVPSSSLGTQTYICNVNHKPSNTKVDKKVEPKSCSGGGGSGGGGSGGGGSEVQLLESGGGLVQPGGSLRLSCAVSGIDLSNYAINWVRQAPGKCLEWIGIIWASGTTFYATWAKGRFTISRDSTTVYLQMNSLRAEDTAVYYCARTVPGYSTAPYFDLWGQGTLVTVSSGGGGSGGGGSGGGGSQVTLKESGPVLVKPTETLTLTCTVSGFSLTNYHVQWIRQPPGKCLEWLGVMWSDGDTSFNSVLKSRLTISRDTSKSQVVLTMTNMDPVDTATYYCARDGTIAAMDYFDYWGQGTLVTVSS
light: DIQMTQSPSSLSASVGDRVTITCRATQSIYNALAWYQQKPGKAPKLLIYNANTLHTGVPSRFSASGSGTDSTLTISSLQPEDFATYYCQQYYDYPLTFGGGTKVEIKRTVAAPSVFIFPPSDEQLKSGTASVVCLLNNFYPREAKVQWKVDNALQSGNSQESVTEQDSKDSTYSLSSTLTLSKADYEKHKVYACEVTHQGLSSPVTKSFNRGECSGGGGSGGGGSGGGGSDIVMTQSPSSVSASVGDRVTITCQSSPSVWSNFLSWYQQKPGKAPKLLIYEASKLTSGVPSRFKGSGSGTDFTLTISSLQPEDFATYYCGGGYSSISDTTFGCGTKVEIKGGGGSGGGGSGGGGSDIQMTQSPSSLSASVGDRVTITCLASEDISNYLAWYQQKPGKAPKLLIYHTSRLQDGVPSRFSGSGSGTDFTLTISSLQPEDFATYYCQQGYRFPLTFGCGTKVEIKR
notes: Trispecific Fab-Fv-Fv (OX40, HSA, IL13); terminal 652 Fv with a disulfide (+DS read as dsFv); HEK293 supernatant; also called A26-645-652+DS; A26Fab-645Fv-652/870Fv
B3: A26Fab-(3xG4S)-645dsFv-(3xG4S)-652Fv (other)
heavy: B2 heavy with C414A
light: DIQMTQSPSSLSASVGDRVTITCRATQSIYNALAWYQQKPGKAPKLLIYNANTLHTGVPSRFSASGSGTDSTLTISSLQPEDFATYYCQQYYDYPLTFGGGTKVEIKRTVAAPSVFIFPPSDEQLKSGTASVVCLLNNFYPREAKVQWKVDNALQSGNSQESVTEQDSKDSTYSLSSTLTLSKADYEKHKVYACEVTHQGLSSPVTKSFNRGECSGGGGSGGGGSGGGGSDIVMTQSPSSVSASVGDRVTITCQSSPSVWSNFLSWYQQKPGKAPKLLIYEASKLTSGVPSRFKGSGSGTDFTLTISSLQPEDFATYYCGGGYSSISDTTFGCGTKVEIKGGGGSGGGGSGGGGSDIQMTQSPSSLSASVGDRVTITCLASEDISNYLAWYQQKPGKAPKLLIYHTSRLQDGVPSRFSGSGSGTDFTLTISSLQPEDFATYYCQQGYRFPLTFGGGTKVEIK
notes: Trispecific Fab-Fv-Fv (OX40, HSA, IL13); terminal 652 Fv without a disulfide (-DS read as Fv); HEK293 supernatant; also called A26-645-652-DS; A26Fab-645Fv-652/870Fv
B4: A26Fab-(3xG4S)-645dsFv-(3xG4S)-870Fv (other)
heavy: EVQLVESGGGLVQPGGSLRLSCAASGFTFTNYGIHWIRQAPGKGLEWVASISPSGGLTYYRDSVKGRFTISRDDAKNSPYLQMNSLRAEDTAVYYCATGGEGIFDYWGQGTLVTVSSASTKGPSVFPLAPSSKSTSGGTAALGCLVKDYFPEPVTVSWNSGALTSGVHTFPAVLQSSGLYSLSSVVTVPSSSLGTQTYICNVNHKPSNTKVDKKVEPKSCSGGGGSGGGGSGGGGSEVQLLESGGGLVQPGGSLRLSCAVSGIDLSNYAINWVRQAPGKCLEWIGIIWASGTTFYATWAKGRFTISRDSTTVYLQMNSLRAEDTAVYYCARTVPGYSTAPYFDLWGQGTLVTVSSGGGGSGGGGSGGGGSEVQLVESGGGLVQPGGSLRLSCAASGYVFTDYGMNWVRQAPGKGLEWMGWINTYIGEPIYADSVKGRFTFSLDTSKSTAYLQMNSLRAEDTAVYYCARGYRSYAMDYWGQGTLVTVSS
light: DIQMTQSPSSLSASVGDRVTITCRATQSIYNALAWYQQKPGKAPKLLIYNANTLHTGVPSRFSASGSGTDSTLTISSLQPEDFATYYCQQYYDYPLTFGGGTKVEIKRTVAAPSVFIFPPSDEQLKSGTASVVCLLNNFYPREAKVQWKVDNALQSGNSQESVTEQDSKDSTYSLSSTLTLSKADYEKHKVYACEVTHQGLSSPVTKSFNRGECSGGGGSGGGGSGGGGSDIVMTQSPSSVSASVGDRVTITCQSSPSVWSNFLSWYQQKPGKAPKLLIYEASKLTSGVPSRFKGSGSGTDFTLTISSLQPEDFATYYCGGGYSSISDTTFGCGTKVEIKGGGGSGGGGSGGGGSDIQMTQSPSSLSASVGDRVTITCKASQNVGTNVAWYQQKPGKAPKALIYSASFLYSGVPYRFSGSGSGTDFTLTISSLQPEDFATYYCQQYNIYPLTFGQGTKVEIK
notes: Trispecific Fab-Fv-Fv (OX40, HSA, TNF); terminal 870 Fv without a disulfide (-DS read as Fv); HEK293 supernatant; also called A26-645-870-DS; A26Fab-645Fv-652/870Fv

What was measured:
[1] = molecular target: T1, human serum albumin (human, UniProt P02768 25-609); experiment: SPR, Biacore T100; sample captured by anti-human CH1 antibody, HSA as analyte
T1 construct: Bought protein; also called HSA
Procedure: (§1) Covalent immobilisation of the capture antibody was achieved by standard amine coupling chemistry.
(§2) After each cycle, the capture surface was regenerated with 2×1 min injections of 40 mM HCl followed by 30 s of 5 mM NaOH. The flow rates used were 10 μl/min for capture, 30 μl/min for association and dissociation phases, and 10 μl/min for regeneration.
A blank flow-cell was used for reference subtraction and buffer-blank injections were included to subtract instrument noise and drift.

[2] = molecular target: T2, IL-6 (UniProt P05231 30-212, limits assumed); experiment: SPR, Biacore T100; sample captured by anti-human CH1 antibody, IL-6 as analyte
[3] = molecular target: T1, human serum albumin; experiment: SPR, Biacore T100; sample captured by anti-human CH1 antibody, HSA as analyte, 1:1 fit
Procedure: as §1, §2
Kinetic parameters were determined by simultaneous global-fitting of the resulting sensorgrams to a standard 1:1 binding model using Biacore T100 Evaluation Software v2.0.1.

[4] = molecular target: T2, IL-6; experiment: SPR, Biacore T100; sample captured by anti-human CH1 antibody, IL-6 as analyte; kinetics not given
[5] = molecular target: T3, IL13 (UniProt P35225 35-146, limits assumed); experiment: SPR, Biacore 3000; sample captured by anti-human CH1 antibody, IL13 as analyte
T3 construct: also called IL13 (R&D 213IL)
Procedure: as §1, §2
(§3) Kinetic parameters were determined by simultaneous global-fitting of the resulting sensorgrams to a standard 1:1 binding model using Biacore 3000 Evaluation Software v3.2

[6] = molecular target: T1, human serum albumin; experiment: SPR, Biacore 3000; construct captured by anti-human CH1 antibody, 50 nM HSA alone
Procedure: as §1, §2

[7] = molecular target: T4, Ox40/mFc (UniProt P43489 29-214); experiment: SPR, Biacore 3000; construct captured by anti-human CH1 antibody, 20 nM Ox40/mFc alone
T4 construct: Bought fusion protein; also called Ox40/mFc (AXXORA 1588)
T4 sequence (looked up): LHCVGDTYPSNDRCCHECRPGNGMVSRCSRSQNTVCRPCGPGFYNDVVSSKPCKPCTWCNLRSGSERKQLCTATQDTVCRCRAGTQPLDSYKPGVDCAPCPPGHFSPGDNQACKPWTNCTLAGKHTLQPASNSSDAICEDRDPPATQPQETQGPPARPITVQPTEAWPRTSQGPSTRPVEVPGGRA
Procedure: as §1, §2

[8] = molecular target: T5, TNF (human, UniProt P01375 77-233); experiment: SPR, Biacore 3000; sample captured by anti-human CH1 antibody, TNF as analyte
T5 construct: also called TNF (Strathmann hTNFa); hTNFa
Procedure: as §1, §2, §3

Row | Binder | Stoichiometry [1] | Stoichiometry [2] | Kd [3] | koff [3] | kon [3] | RU of binding [4] | Affinity (fold loss against the parent) [5] | Stoichiometry [5] | Response RU [6] | Response RU [7] | Affinity (fold loss against the parent) [8] | Stoichiometry [8]
1 | B1 | 0.39 | 0.06 | 11.3 nM | 0.000379 s⁻¹ | 33400 M⁻¹ s⁻¹ | 1 RU |  |  |  |  |  | 
2 | B2 |  |  |  |  |  |  | 2 fold | 0.88 | 11 RU | 39 RU |  | 
3 | B3 |  |  |  |  |  |  |  | 0.95 | 12 RU | 42 RU |  | 
4 | B4 |  |  |  |  |  |  |  |  | 11 RU | 31 RU | 2 fold | 0.39
